What was measured:
[1] = target: T1, CLUST.143952 3300028591 effector (Ga0247611_10000032_233) (uncultured metagenome (sheep rumen)); assay: PAM 5'-G-3'; 37 C, in vitro transcription/translation; ratio normalised to non-target guide (SEQ 90); conditions: tags: FDA assay, one-pot in vitro transcription/translation
T1 chain: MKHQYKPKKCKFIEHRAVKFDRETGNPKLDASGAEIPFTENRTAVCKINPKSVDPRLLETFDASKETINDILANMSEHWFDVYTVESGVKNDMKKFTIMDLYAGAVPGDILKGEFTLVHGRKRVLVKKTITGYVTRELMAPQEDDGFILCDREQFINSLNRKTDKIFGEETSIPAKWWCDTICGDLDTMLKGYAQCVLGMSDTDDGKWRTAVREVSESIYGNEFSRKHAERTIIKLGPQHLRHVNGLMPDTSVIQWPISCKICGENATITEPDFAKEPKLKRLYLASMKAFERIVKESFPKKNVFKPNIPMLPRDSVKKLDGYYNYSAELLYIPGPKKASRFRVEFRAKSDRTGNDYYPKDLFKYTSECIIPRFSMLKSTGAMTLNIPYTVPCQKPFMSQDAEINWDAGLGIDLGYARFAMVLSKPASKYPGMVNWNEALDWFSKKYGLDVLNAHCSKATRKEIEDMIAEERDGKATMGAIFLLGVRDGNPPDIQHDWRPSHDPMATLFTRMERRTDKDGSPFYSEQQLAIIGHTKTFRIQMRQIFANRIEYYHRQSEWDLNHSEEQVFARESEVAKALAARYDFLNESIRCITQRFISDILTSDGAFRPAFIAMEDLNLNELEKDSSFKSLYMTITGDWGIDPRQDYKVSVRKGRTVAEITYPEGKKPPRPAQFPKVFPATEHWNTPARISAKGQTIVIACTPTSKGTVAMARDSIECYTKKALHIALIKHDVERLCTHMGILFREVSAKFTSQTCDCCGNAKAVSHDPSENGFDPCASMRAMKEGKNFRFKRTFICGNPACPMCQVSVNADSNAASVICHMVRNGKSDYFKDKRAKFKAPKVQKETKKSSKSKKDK
Excerpt: (§1) In this assay, an active CRISPR system designed to target GFP binds and cleaves the double-stranded DNA region encoding GFP, resulting in depletion of GFP fluorescence. The FDA assay involves in vitro transcription and translation, allowing production of an RNP from a DNA template encoding a CLUST.143952 effector and a DNA template containing a pre-crRNA sequence under a T7 promoter with direct repeat (DR)-spacer-direct repeat (DR); the spacer targeted GFP. In the same one-pot reaction, GFP and RFP were also produced as both the target and the fluorescence reporter (FIG. 8A). The target GFP plasmid sequence is set forth in SEQ ID NO: 86, and the RFP plasmid sequence is set forth in SEQ ID NO: 87. GFP and RFP fluorescence values were measured every 20 min at 37° C. for 12 hr, using a TECAN Infinite F Plex plate reader. Since RFP was not targeted, its fluorescence was not affected and was therefore used as an internal signal control.
(§2) 2 GFP targets (plus 2 non-targets) were designed for the effector of SEQ ID NO: 1. RNA guide sequences (pre-crRNAs for Target 1 and Non-Target 2 and mature crRNAs for Target 3 and Non-Target 4), target sequences, and the non-target control sequences used for the FDA assay are listed in TABLE 9. […]
(§3) GFP signal was normalized to RFP signal, then the average fluorescence of three technical replicates was taken at each time point. […]

[2] = target: T1, CLUST.143952 3300028591 effector …; assay: PAM 5'-G-3'; 37 C, in vitro transcription/translation; ratio normalised to non-target guide (SEQ 93); conditions: tags: FDA assay, one-pot in vitro transcription/translation
Excerpt: as §1, §2, §3

B1: pre-crRNA Target 1 (DR-spacer-DR) ; GFP Target 1 (ssRNA ; dsDNA)
RNA: UAUGGUAGAGGUGCCACCGGUUUACAUGGCGCCGAUACCAAGGUAUGAAAUUUAUCAUUAAAGGCGUAUGGUAGAGGUGCCACCGGUUUACAUGGCGCCGAUACCUAACCCCUCUCUAAACGGAGGGGUUU
DNA 1: AAGGTATGAAATTTATCATTAAAGGCG
DNA 2: CGCCTTTAATGATAAATTTCATACCTT
B1 gave an activity [1] greater than 1 GFP depletion ratio.

B2: mature crRNA Target 3 ; GFP Target 3 (ssRNA ; dsDNA)
RNA: UAUGGUAGAGGUGCCACCGGUUUACAUGGCGCCGAUACCAAGGUAUGAAAUUUAUCAUUAAAG
DNA 1: AAGGTATGAAATTTATCATTAAAG
DNA 2: CTTTAATGATAAATTTCATACCTT
B2 showed an activity [2] greater than 1 GFP depletion ratio.
